Assays:
[1] = biological target: mTFP1-AB-mcpVenus folding biosensor, WT (human)
[2] = biological target: mTFP1-AB-mcpVenus folding biosensor, W344R (human)
[3] = biological target: YFP-tagged Kv7.2 WT channel (human) (UniProt O43526); experiment: FRET or BRET; living HEK293T cells; mCFP-CaM (donor) and YFP (mCitrine)-tagged Kv7.2, ABCD or AB (acceptor), transfection ratio 1:5; spectral unmixing of confocal images; room temperature, buffer with 2 mM CaCl2, pH 7.4
YFP-tagged Kv7.2 WT channel (human), sequence (O43526 other isoform, or with tags, fused parts or gaps): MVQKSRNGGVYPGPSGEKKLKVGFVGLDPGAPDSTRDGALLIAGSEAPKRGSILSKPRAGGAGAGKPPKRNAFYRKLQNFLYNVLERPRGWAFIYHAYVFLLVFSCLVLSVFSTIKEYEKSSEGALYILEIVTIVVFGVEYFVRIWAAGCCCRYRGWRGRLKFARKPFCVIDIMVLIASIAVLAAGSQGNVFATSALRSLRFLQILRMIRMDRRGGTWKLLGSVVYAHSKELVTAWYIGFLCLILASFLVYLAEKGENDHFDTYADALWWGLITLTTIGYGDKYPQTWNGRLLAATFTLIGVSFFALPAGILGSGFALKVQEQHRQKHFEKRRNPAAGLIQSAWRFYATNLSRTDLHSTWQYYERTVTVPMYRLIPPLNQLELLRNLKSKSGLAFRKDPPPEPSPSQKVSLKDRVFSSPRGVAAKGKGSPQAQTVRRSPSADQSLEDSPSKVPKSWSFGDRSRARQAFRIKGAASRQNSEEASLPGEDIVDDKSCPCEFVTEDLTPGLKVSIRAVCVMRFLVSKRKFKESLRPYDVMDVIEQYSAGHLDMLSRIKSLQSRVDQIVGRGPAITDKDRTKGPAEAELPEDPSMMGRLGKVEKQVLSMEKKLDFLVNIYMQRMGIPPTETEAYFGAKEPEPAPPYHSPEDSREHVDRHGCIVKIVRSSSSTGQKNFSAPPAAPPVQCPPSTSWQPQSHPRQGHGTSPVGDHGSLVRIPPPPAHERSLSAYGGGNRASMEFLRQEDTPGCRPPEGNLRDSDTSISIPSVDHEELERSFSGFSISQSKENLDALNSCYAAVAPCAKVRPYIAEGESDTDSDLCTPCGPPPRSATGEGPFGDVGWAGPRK

mTFP1-AB-mcpVenus folding biosensor, WT (human), sequence (O43526 whole entry): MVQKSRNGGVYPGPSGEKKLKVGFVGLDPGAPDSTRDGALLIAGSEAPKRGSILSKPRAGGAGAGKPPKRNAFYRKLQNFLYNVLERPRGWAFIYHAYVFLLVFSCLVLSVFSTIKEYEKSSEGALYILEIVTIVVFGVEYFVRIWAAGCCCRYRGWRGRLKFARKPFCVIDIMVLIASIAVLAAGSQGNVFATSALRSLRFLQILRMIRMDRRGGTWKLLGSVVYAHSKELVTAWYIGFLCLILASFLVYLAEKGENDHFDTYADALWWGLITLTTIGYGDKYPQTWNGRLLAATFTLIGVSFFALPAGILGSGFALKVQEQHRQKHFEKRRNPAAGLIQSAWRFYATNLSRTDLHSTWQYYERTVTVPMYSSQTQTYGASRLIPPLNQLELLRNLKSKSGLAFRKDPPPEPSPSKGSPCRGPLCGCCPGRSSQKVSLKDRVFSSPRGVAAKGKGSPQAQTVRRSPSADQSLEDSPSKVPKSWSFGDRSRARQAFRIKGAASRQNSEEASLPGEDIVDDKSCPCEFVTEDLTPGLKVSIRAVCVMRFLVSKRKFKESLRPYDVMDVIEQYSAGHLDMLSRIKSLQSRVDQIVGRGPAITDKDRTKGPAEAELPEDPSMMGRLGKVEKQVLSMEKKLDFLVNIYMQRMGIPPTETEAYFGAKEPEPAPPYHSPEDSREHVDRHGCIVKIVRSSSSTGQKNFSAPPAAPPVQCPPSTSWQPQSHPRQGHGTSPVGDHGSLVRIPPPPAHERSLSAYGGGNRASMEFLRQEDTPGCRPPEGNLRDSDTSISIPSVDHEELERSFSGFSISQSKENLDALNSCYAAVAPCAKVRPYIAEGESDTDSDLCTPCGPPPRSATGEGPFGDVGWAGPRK

Substance	FRET efficiency (ratio of peak emission at 528 and 492 nm) of the folding sensor co-expressed with CaM [1]	FRET efficiency of the soluble fraction of the sensor co-expressed with CaM in E. coli, relative to the WT biosensor [2]	FRET efficiency [3]
Calmodulin (from UniProt P0DP23 1-149) (natural protein)	0.4	33%	
Calmodulin with an N-terminus mCFP-tag (from UniProt P0DP23 1-149) (natural protein)			0.18
